The target of assay [1] is T1, recombinant Fc chimeric conjugate of human EGFR (human, UniProt P00533 25-645).
T1 construct: extracellular domain; Coated on the ELISA plate; also called HER1; Her1
Briefly: ELISA, coated antigen.
Procedure: (§1) Microtiter plates were coated with a) c-Met, IGF-1R, EGFR, HER2, and/or HER3 protein or b) EGFR, HER2, and/or HER3 (recombinant Fc chimeric conjugates of human c-Met, IGF-1R, EGFR, HER2, HER3 or IL12 Rβ1). After a blocking process, specific antibodies from B-cell supernatants bind to the targets and are then detected by a POD-labeled anti-rabbit IgG antibody. The IL12R binding was used as a counter-screen.
(§2) 12.5 μL 0.5 μg/mL protein in PBS was transferred to a microtiter plate incubated and washed 3× with Wash Buffer. 90 μL Block Buffer was added to each well, incubated and washed. 12.5 μL Standard Antibody (Anti-EGF-Receptor; HER2 Rabbit anti-Human Monoclonal (extracellular domain) (SP3) Antibody; HER3 (N-terminal) antibody; start concentration 2 μg/ml; IL-12Rbeta1 antibody start concentration 500 ng/ml) in 1:2 dilutions or sample diluted in ELISA buffer was added, incubated and washed. 12.5 μl 1:5000 POD-Antibody (Anti-rabbit IgG, peroxidase-linked species-specific Fab2 fragment (from donkey) (ECL); assay dilution: 1:5000) in Elisa Buffer was added, incubated and washed. 15 μl TMB was added and 15 μl HCl was added after sufficient development. Absorbance (Optical Density O.D.) was read at 450 nm/620 nm.

For assay [2], the target named is T1, recombinant Fc chimeric conjugate of …. Briefly: ELISA, coated antigen. This is another data set of the same source.
Procedure: as §1, §2
Assay [3] deals with T2, recombinant Fc chimeric conjugate of human HER2 (human, UniProt P04626 23-652).
T2 construct: extracellular domain; Coated on the ELISA plate
Briefly: ELISA, coated antigen.
Procedure: as §1, §2

Assay [4] concerns the target T3, recombinant Fc chimeric conjugate of human IGF-1R (human, UniProt P08069 31-935).
T3 construct: extracellular domain; Coated on the ELISA plate
Briefly: ELISA, coated antigen.
Procedure: as §1, §2

For assay [5], the target named is T4, recombinant Fc chimeric conjugate of human HER3 (human, UniProt P21860 20-643).
T4 construct: extracellular domain; Coated on the ELISA plate
T4 sequence (P21860 20-643, change not shown): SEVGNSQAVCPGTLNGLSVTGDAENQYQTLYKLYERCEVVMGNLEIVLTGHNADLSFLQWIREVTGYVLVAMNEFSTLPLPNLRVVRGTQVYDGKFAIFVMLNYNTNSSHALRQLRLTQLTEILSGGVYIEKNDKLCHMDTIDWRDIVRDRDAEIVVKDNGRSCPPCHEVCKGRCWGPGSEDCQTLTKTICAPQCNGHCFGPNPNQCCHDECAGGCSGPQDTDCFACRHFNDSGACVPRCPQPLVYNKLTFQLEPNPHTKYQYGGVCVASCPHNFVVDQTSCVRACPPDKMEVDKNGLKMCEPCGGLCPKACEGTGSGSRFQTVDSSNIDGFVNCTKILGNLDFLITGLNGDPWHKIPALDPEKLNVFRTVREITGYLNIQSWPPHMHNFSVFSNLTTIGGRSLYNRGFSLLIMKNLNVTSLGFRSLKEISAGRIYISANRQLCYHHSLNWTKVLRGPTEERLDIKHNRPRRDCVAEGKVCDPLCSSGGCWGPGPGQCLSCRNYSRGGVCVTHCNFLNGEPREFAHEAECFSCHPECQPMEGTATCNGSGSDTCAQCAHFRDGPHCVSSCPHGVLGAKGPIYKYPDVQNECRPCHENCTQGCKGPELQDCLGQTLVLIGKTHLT
The assay is described as follows: ELISA, coated antigen.
Procedure: as §1, §2

The target of assay [6] is T2, recombinant Fc chimeric conjugate of …. Briefly: ELISA, coated antigen; supernatant IgG 1500.0 ng/ml.
Procedure: as §1, §2
Assay [7] concerns the target T1, recombinant Fc chimeric conjugate of …. Described as above.
Procedure: as §1, §2
Assay [8] has as its target T2, recombinant Fc chimeric conjugate of …. Briefly: ELISA, coated antigen. The source holds these as a separate data set.
Procedure: as §1, §2

Like-named read-outs stand apart in the source and are kept apart here.

From patent publication US20150259430A1 (MAB DISCOVERY, published 2015) come the findings set out here.

T3 sequence (P08069 31-935, change not shown): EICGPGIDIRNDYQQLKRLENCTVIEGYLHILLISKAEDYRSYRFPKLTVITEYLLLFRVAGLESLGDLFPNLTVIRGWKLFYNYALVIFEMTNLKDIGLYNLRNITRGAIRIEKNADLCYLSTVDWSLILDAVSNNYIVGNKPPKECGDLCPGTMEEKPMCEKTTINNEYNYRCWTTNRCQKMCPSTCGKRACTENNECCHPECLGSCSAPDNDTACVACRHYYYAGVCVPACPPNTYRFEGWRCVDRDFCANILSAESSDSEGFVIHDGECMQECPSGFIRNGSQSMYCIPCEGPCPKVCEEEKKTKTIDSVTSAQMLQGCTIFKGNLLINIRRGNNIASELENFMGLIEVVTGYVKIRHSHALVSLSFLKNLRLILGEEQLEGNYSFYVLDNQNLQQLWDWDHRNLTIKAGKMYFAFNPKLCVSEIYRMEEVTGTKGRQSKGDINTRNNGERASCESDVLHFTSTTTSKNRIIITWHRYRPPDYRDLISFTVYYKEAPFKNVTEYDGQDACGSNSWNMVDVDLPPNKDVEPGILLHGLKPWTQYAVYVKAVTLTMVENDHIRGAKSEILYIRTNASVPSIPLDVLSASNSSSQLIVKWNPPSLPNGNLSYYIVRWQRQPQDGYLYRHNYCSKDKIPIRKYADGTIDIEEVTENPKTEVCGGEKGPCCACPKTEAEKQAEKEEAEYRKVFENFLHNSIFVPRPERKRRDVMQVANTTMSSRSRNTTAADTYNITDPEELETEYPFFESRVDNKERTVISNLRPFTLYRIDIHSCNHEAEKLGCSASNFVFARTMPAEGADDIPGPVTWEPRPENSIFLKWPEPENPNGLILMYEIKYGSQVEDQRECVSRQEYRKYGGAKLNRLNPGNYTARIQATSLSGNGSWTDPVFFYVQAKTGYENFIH

B1: Antibody 47 (antibody, V domains shown)
VH: QSVEESGGRLVTPGTPLTLTCTVSGFSLSSYAMNWVRQAPGKGLEWIGIIDSSGITYYATWAKGRFTISKTSTTVDLKMTSLTTEDTATYFCARGVTLWGQGTLVTVSS
VL: AQVLTQTASPVSAAVGSTVTINCQASQSVYNNNRLSWFQQKPGQPPKLLISGASTLASGVSSRFSGSGSGTQFTLTISDVQCDDAATYYCLGSYDCSSADCGAFGGGTEVVVK
notes: rabbit IgG in B-cell supernatant
For the molecule B1, in assay [1], the binding result was “no binding (tested: OD 0.1 or lower)”.

B2: Antibody B02 (antibody, V domains shown)
VH: QSVEESGGRLVTPGTPLTLTCTVSGFSLSSYDMIWVRQAPGKGLEYIGIINTGGSAHYARWANGRFTISKTSTKVDLKITSPTIEDTATYFCARRDFGVSSKLWGQGTLVTVSS
VL: DIVMTQTPASVSAAVGGTVTINCQASEDIGNWLAWYQQKPGQRPKLLIYAASDLASGVPSRFKGSGSGTDFTLTISGLECADAATYYCQGGFFGSGFVYAFGGGTEVVVK
notes: as for B1
Turning to B2, the binding result in assay [2] was “no binding (tested: OD 0.1 or lower)”.

B3: Antibody 64 (antibody, V domains shown)
VH: QEQLKESGGGLVTPGTPLTLTCTASGFTISSYDMGWVRQAPGKGLEWIGYIWSGGSTYYANWAKGRFTISKTSTTVDLKMTSLTTEDTATYFCARVEFYSYVYVLWGPGTLVTVSS
VL: AFELTQTPSSVEAAVGGTVTIKCQASQSISGCLAWYQQKPGQPPKLLIYLASTLASGVSSRFRGSGSGTEYTLTISGVECDDAATYYCQQHYSSNNVDNAFGGGTEVVVK
notes: as for B1
Regarding B3, the binding result in assay [3] is given as “no binding (tested: OD 0.1 or lower)”.

B4: Antibody 22 (antibody, V domains shown)
VH: QSVEESGGRLVTPGTPLTLTCTVSGFSLSNYGMSWVRQAPGKGLEWIGIITSRSTYYASWAKGRFTISKTSSTTVDLKMTSLTTEDTATYFCGVNNLWGQGTLVTVSS
VL: DPVLTQTPSSVSAAVGGTVTISCQSSQTINNNDLSWFQQKPGQPPKRLIYEASTLTSGVPSRFKGSGSGTQFTLTISDVQCDDAATYYCLGGYYSYGWYFGFGGGTEVVVK
notes: as for B1
For the molecule B4, the binding result in assay [3] is “no binding (tested: OD 0.1 or lower)”.

B5: Antibody 23 (antibody, V domains shown)
VH: QSLEESGGRLVKPGTPLTLTCTASGFSLSSYYMIWVRQAPGKGLEYIGIISSSGSTYYASWAKGRFTISKTSSTTVDLKMTSLTTEDTATYFCGVNNLWGQGTLVTVSS
VL: DPVLTQTPSSVSAAVGGTVTISCQSSQSINNNDLSWFQKKPGQPPKRLIYEASTLTSGVPSRFKGSGSGTQFTLTISDVQCDDAATYYCLGGYYSYGWYFGFGGGTEVVVK
notes: as for B1
In the case of B5, the binding result in assay [3] was “no binding (tested: OD 0.1 or lower)”.

B6: Antibody 69 (antibody, V domains shown)
VH: QSVEESGGRLVTPGTLLTLTCTVSGFSLTTYAVSWVRQAPGKGLEYMGYISATGSTYYASWAKGRFTISRTSTTVDLKITSPTIEDTATYFCARIDAATSYSAFDPWGPGTLVTVSS
VL: AQVLTQTPSSVSAAVGGTVTINCQSSESVYKNNYLAWYQQKPGQPPRLLIYLASTLASGVPSRFSGSGSGTQFTLTISGVQCDDAATYYCEATYVGVDWYWAFGGGTEVVVK
notes: as for B1
For the molecule B6, the binding result in assay [3] is “no binding (tested: OD 0.1 or lower)”.

B7: Antibody G04 (antibody, V domains shown)
VH: QSLEESGGDLVKPGASLTLTCKASGFTISSSYYMCWVRQAPGKGLEWVACSYDGDGSTYYANWAKGRFTTSKTSSTTVTLQMTSLTAADTATYFCARGSYVSRSYYDKWDLWGQGTLVTVSS
VL: EVVMTQTPASVSEPVGGTVTIKCQASQYISSYLSWYQQKPGQPPKLLIYAASNLASGVPSRFKGSGSGTEFTLTISGVQCDDAATYYCQNNYYISGYGTAFGGGTEVVVK
notes: as for B1
As to B7, in assay [2], the binding result is reported as “no binding (tested: OD 0.1 or lower)”.

B8: Antibody D02 (antibody, V domains shown)
VH: QSLEESGGRLVTPGTPLTLTCTASRFSLSSYGVNWVRQAPGKGLQWIGYSHTDGSAYYTNWAKGRFTISRTSTTVDLKITSPTTADTATYFCWRGGLWGQGTLVTVSS
VL: AQVLTQTPSSVSAAVGGTVTINCQASQSVYKNNYLSWYQQKPGQPPKRLIYTASTLASGVPSRFKGSGSGTEFTLTISDVQCDDAATYYCVGGYDCSSADCNAFGGGTEVVVK
notes: as for B1
In the case of B8, the binding result in assay [4] was “no binding (tested: OD 0.1 or lower)”.

B9: Antibody 11 (antibody, V domains shown)
VH: QSVEESGGRLVTPGTPLTLTCTVSGFSLRSYAMSWVRQAPGKGLEWVGIISTSGDTYYASWAKGRFTISKTSTTVDLKITSPTTEDTATYFCARYSYDDYGDYVRVGMDLWGPGTLVTVSS
VL: AAVLTQTPSPVSAAVGGTVSISCQSSKSVYYNNWLSWFQQKPGQRPKLLIYGASTLASGVPSRFKGSGSETQFTLTISDVQCDDAATYYCAGGYTSSSDTVSFGGGTEVVVK
notes: as for B1
Turning to B9, the binding result in assay [3] was “no binding (tested: OD 0.1 or lower)”.

B10: Antibody 75 (antibody, V domains shown)
VH: QSVEESGGRLVTPGTPLTLTCTVSGFSLSRNAMSWVRQAPGKGLEWIGIINIYGTTWYASWAKGRFTISKTSSTTVTLKITSPTTEDTATYFCARDYGGDSATRLNLWGQGTLVTVSS
VL: DVVMTQTPASVEAAVGGTVTIKCQASQSIGGYLSWYQQKPGQPPKLLIYDASNLEIGVPSRFKGSGSGTEYTLTISDLECADAVTYYCQCTYGYGISSSYGNAFGGGTEVVVK
notes: as for B1
As to B10, the binding result in assay [3] is listed as “no binding (tested: OD 0.1 or lower)”.

B11: Antibody 71 (antibody, V domains shown)
VH: QSVEESGGRLVTPGTPLTLTCTVSGFSLSRNAMSWVRQAPGKGLEWIGIINIYGTTWHAGWAKGRFTISKTSSTTVTLKITSPTTEDTATYFCARDYGGDSATRLNLWGQGTLVTVSS
VL: DVVMTQTPASVEAAVGGTVTIKCQASQSIGGYLSWYQQKPGQPPKLLIYDASNLEIGVPSRFKGSGSGTEYTLTISDLECADAVTYYCQCTYGYGISSSYGNAFGGGTEVVVK
notes: as for B1
On to B11, for which the binding result in assay [3] is listed as “no binding (tested: OD 0.1 or lower)”.

B12: Antibody 62 (antibody, V domains shown)
VH: QSVEESGGRLVTPGTPLTLTCTVSGFSLSTNDIGWVRQAPGKGLEWIGYIWSGVKTYYVGWAKGRFTISKTSSTTVDLKMTSLTTEDTATYFCARVNSFSYVYSLWGPGTLVTVSS
VL: AYDMTQTPGSVEVAVGGTVTIKCQASEDIHSSLAWYQQKPGQPPKLLIYLASTLESGVPSRFKGSGSGTEYTLTISGVECADAATYYCQQHHSTSGVDNAFGGGTEVVVK
notes: as for B1
Turning to B12, the binding result in assay [3] is recorded as “no binding (tested: OD 0.1 or lower)”.

B13: Antibody 87 (antibody, V domains shown)
VH: QSVEESGGRLVTPGTPLTVTCTVSGFSLSSYVMSWVRQAPGKGLEWIGIIASSGHTYYATWAKGRFTISKTSTTVDLKITSPTTEDTATYFCARYGSDSGWGYYFTLWGPGTLVTVSS
VL: AQVLTQTPSSVSEPVGGTVTINCQASENIYSYLSWYQQKRGQPPKLLIYGASTLASGVPSRFKGSGSGTEYTLTISDLECDDAATYYCQSGYYTNSGDLAFGGGTEVVVK
notes: as for B1
With B13, the binding result in assay [1] is reported as “no binding (tested: OD 0.1 or lower)”.

B14: Antibody 77 (antibody, V domains shown)
VH: QSVEESGGRLVTPGTPLTLTCTISGFSLNNYWMSWVRQAPGKGLEWIGIISSSDTTWYASWAKGRFTISRTSTTVDLKMTSLTTEDTATYFCARDRGDVGYSDLDLWGPGTLVTVSS
VL: AYDMTQTPASVEVAVGGTVTIKCQASQSISSYLSWYQQKPGQPPKLLIYKASTLASGVSSRFSGSGSGTEFTLTISGVQCDDAATYYCQQGYSESNLDNAFGGGTEVVVK
notes: as for B1
As for B14, the binding result in assay [5] is “no binding (tested: OD 0.1 or lower)”. Besides, the “Optical density (OD)” value in assay [6] was 2.5 OD; in assay [7], 1.5 OD.

B15: Antibody D08 (antibody, V domains shown)
VH: QSLEESGGRLVTPGTPLTLTCTVSGFSLGTYWMSWVRQAPGRGLDWIGFIGSSGNGNYASWAKGRFTISRASSTTVDLKMTSLTTEDTATYFCARVKYFYYFDLWGQGTLVTVSS
VL: AQVLTQTTSPVSAAVGGTVTINCQASESVYGKKYLSWYQQKPGQPPKQLIYEASKLASGVPSRFEGSGSGTQFTLTISGVQCDDAATYYCQGEFSCSSADCTAFGGGTEVVVK
notes: as for B1
On to B15, for which the binding result in assay [8] and in assay [4] was “no binding (tested: OD 0.1 or lower)” each time.

B16: Antibody A05 (antibody, V domains shown)
VH: QSLEESGGRLVTPGGSLTLTCTVSGIDLSSYAVAWVRQAPGKGLQYIGFFDKSGNVYYASWAKGRFTISRTSSTTVDLKMTSLTTEDTATYFCGRGSGGSDLWGQGTLVTVSS
VL: DVVMTQTPASVEAAVGGTVTIKCQASQSISGYLAWFQQKPGQPPKLLIYGASTLASGVPSRFKGSGSGTEFTLTISDLECADAATYYCQSYYTTSATSYGNAFGGGTEVVVK
notes: as for B1
For B16, the binding result in assay [2] is reported as “no binding (tested: OD 0.1 or lower)”.

B17: Antibody 68 (antibody, V domains shown)
VH: QSVEESGGRLVTPGTPLTLTCTVSGFSLSTYSMSWVRQAPGKGLEWIGTIAISGTTYYASWAKGRFTISKSSTTVDLKISSPTTEDTATYFCARYVSDLIGTNLWGPGTLVTVSS
VL: DVVMTQTPASVSEPVGGTVTIKCQASQSIGSNLAWHQQKPGQPPKLLIYAASNLASGVSSRFKGSRSGTEYTLTISAVQCDDAATYYCQYTYYGSSVVIGTFGGGTEVVVK
notes: as for B1
Take B17: the binding result in assay [5] is reported as “no binding (tested: OD 0.1 or lower)”. Besides, the “Optical density (OD)” value in assay [6] came to 2.7 OD.
